For orientation: Kd means the constant that tells how readily two partners part at equilibrium.

The values that follow come from patent US20250223339A1 (published 2025).

What all share (assay): BLI
A general note: Biolayer interferometry detects binding as a change in optical thickness at a sensor tip.

Test [1] concerns the target recombinant SARS-CoV-2 Delta RBD.
Test [2] addresses recombinant SARS-CoV-2 Omicron BA.2 RBD.
Test [3] concerns the target recombinant SARS-CoV-2 Beta RBD.
The target in a further test is recombinant SARS-CoV RBD (SARS-CoV, UniProt P59594 306-527).
The target in test [4] is recombinant SARS-CoV-2 Omicron BA.1 RBD.
For test [5], the target named is recombinant SARS-CoV-2 WT (Wuhan-1) RBD.

A value given as a limit tells only on which side of the number the result lay.

B1: ADI-75684 (antibody, V domains shown)
V domain 1: QVQLQESGPGLVKPSETLSLTCTVSGGSISSDHFYWGWIRQPPGKGLEWIGTTYYTARTNYNPSLKSRVTISVDTSKNQFSLKLTSVTATDTAIYYCARVEVSGGFSGYDFLTPYYFDYWGQGALVTVSS
V domain 2: not shown
Turning to B1, the Kd in test [1] worked out at 1.89 nM; in test [2], 18.4 nM; in test [3], 1.05 nM; with recombinant SARS-CoV RBD, 2.59 nM; in test [4], 1.35 nM.

B2: ADI-75859 (antibody, V domains shown)
VH: QVQLVQSGGGVGQPGRSLRLSCAASGFTFGHYGMHWVRQAPGKGLEWVAAIIYDGSDKQYADSVKGRFTISRDNSKNTVYLQMNSLRPEDTAIYFCAKLGGLYCSGGNCFSGYFDYWGQGTLVTVSS
VL: ETTLTQSPSSLSASVGDRVTITCRASQGISNSLAWYQQKPGKAPKLLLYAASTLESGVPSRFSGSGSGTDFTLTIASLQPEDFATYYCQQYYSSVRFTFGQGTILDLN
B2: the Kd in test [1] was 0.82 nM; in test [5], 0.36 nM; in test [2], 2.37 nM; in test [3], 0.89 nM; in the test with recombinant SARS-CoV RBD, 226 nM; in test [4] it was 13.3 nM.

B3: ADI-75754 (antibody, V domains shown)
VH: QVQLVQSGGDLVQPGGSLRLSCVASGFTFSNYEMNWVRQGPGKGLEWISYISTSGSTYYYADSVKGRFTISRDNARNSLYLQMDSLRVEDTAIYYCLTHPQPQYVRPTQVVWFDPWGQGTLVTVSS
VL: EMTMTQSPGTLSLSPGERATLSCRASESVSSEYLAWHQQRPGQAPRLLIYGASSRPTGIPDRFSGSGSGTDFTLTISRLEPEDFAVYYCHQFASAPITFGQGTRLEIK
Turning to B3, the dissociation constant Kd was 3.45 nM in test [1]; 3.58 nM in test [5]; above 300 nM in test [2]; 1.61 nM in test [3]; 1.41 nM in the test with recombinant SARS-CoV RBD; 37 nM in test [4].

B4: ADI-75738 (antibody, V domains shown)
VH: QVQLQQWGAGLLKPSETLSLTCGVHDGAFSGYFWNWIRQSPVKGLEWIGEVTHSGNTNYNPSLKSRVTMSVDASKNEFSLNLTSVTAADTAVYYCARGDFYSTRLAFDVWGQGSMVTVSS
VL: EIVLTQSPATLSLSPGERATLSCRASQSVSTYLAWYQQRPGQAPRLLIYDASNRATGIPARFSGSGSETDFTLTISSLEPEDFAVYYCQQRSNWLTFGGGTKVEIK
With B4, the Kd in test [1] is 1.53 nM; in test [5], 0.26 nM; in test [2], 1.59 nM; in test [3], 0.56 nM; with recombinant SARS-CoV RBD it was 150 nM; in test [4], 2.77 nM.

B5: ADI-75700 (antibody, V domains shown)
VH: QVQLQQWGAGLLKPSETLSLTCGVYDGSFSDYFWNWIRQPPGKGLEWIGELTHTGSTNYNPSLKSRVTILADTSKSQFSLNLSSVTAADTAVYYCARGDFYSTRLAFDLWGQGTTVTVSS
VL: EIALTQSPATLSLSPGERATLSCRASQSVSTYLAWYQQKPGQAPRLLIYDASKRATGIPARFNGSGSGTDFTLTISSLEPEDFAVYYCQQRSTWPTFGGGTKVDIK
As for B5, the Kd is 1.22 nM in test [1]; 0.24 nM in test [5]; 2.51 nM in test [2]; 1.23 nM in test [3]; 62.2 nM with recombinant SARS-CoV RBD; 7.01 nM in test [4].
